# In PMC11388081, “Targeted degradation of VEGF with bispecific aptamer-based LYTACs ameliorates pathological retinal angiogenesis”:
# B1: V5 (M6PR-A / VEGF-A2 LYTAC) (mixed)
# DNA 1: CCCCCACACGTAAATCAGTCATAGGGCGCGTAGATGACGAGCAGTCCTAACATCGTTTAGGAC
# DNA 2: TATGACTGATTTACGTGTGGGGGTGTGGGGGTGGACGGGCCGGGTAGA
# modifications: 5'-phosphate on strand 1 (T4 DNA ligase step stated)
# Target: VEGF (HZ-1038, Proteintech) (UniProt P15692-4 27-191)
# Experiment: MST; strongest of V4-V6; Kd only in figure; 20 mM CaCl2; MST: 5 nM Cy5-LYTAC, 20 mM Tris-HCl pH 8.5, 20 mM KCl, 20 mM CaCl2, 0.1% Tween 20, 10 min, temperature not stated; pulldown: cell lysate with LYTAC in DPBS-Mg
# Conditions: protein: commercial; chain copies: 2; biotin implied in pulldown; 23-bp linker duplex formed by both 5' ends, 3' single-stranded aptamer tails
# Sequence of VEGF (HZ-1038, Proteintech) (P15692 other isoform, or with tags, fused parts or gaps): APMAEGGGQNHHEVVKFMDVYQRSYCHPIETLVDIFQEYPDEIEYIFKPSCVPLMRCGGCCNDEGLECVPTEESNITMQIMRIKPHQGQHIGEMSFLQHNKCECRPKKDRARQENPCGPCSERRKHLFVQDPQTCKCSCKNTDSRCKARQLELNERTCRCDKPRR
binder,measurement,value
B1,binding result,binds
